# According to the DeepSol protein solubility set:
# Assay: soluble on expression in E. coli; label from the status in PepcDB or PDB records
row,Sequence,soluble on expression in E. coli
1,MAVGAPFLYRYSLYNCAYVILNGKVLGIVPKSYIPNYSEFYEKRWFTEGFNIKGLNVDLDFQKEVPFGTDLIFSFKNLKVGFEICEDLWVTIPPSSNLALMGANLICNLSASNELVSKSSYRKSLVQNQSARTMCSYIYSSAGVHESTTDLLFSGHMIIAENGTIIKENNRFKRENDLLTGIVDLFKLDAERIKNISFRNSTFNENNEPRFIPFNLENTEIKNFDREIDKHPFLPKSQYAMEARCEEILNIQAAALAKRLEHTNLKKAVIGISGGLDSTLALLVVVKTFDMLNIPRENIITITMPGFGTTDRTYNNAVTLCKELHCDFREINIVNAALQHFEDIGHDKDIHDVTYENVQARERTQILMDLANKEGGLLIGTGDLSELALGWCTYNGDHMSMYSVNCSIPKTLVRFLVNYFANHEISNDAKEALLDILDTPVSPELEHHHHHH,soluble
2,MTTEAPIWPAELFEDLDRNGPIPLYFQVAQRLEDGIRSGVLPPGARLENEISVAKHLNVSRPTVRRAIQEVVDKGLLVRRRGVGTQVVQSHVTRPVELTSFFNDLKNANLDPKTRVLEHRLLAASSAIAEKLGVSAGDEVLLIRRLRSTGDIPVAILENYLPPAFNDVSLDELEKGGLYDALRSRGVVLKIANQKIGARRAVGEESTLLDIEDGGPLLTVERVALDNSGQVIELGSHCYRPDMYNFETTLVAR,soluble
3,MGSDKIHHHHHHMTQTPVTLDQKVGEKRDRMRGVFSTQEIRKVGTGTTTRKTIQKSFWYVDEGDDGVIEVQPLNSNYVPSGPKRKIDRDELLDKFAPEPEFYVQTVFPKMRELNKTIARADRHRQKGETFSAEFEYNNALKVDEENVRANFGIGLTYLERGETDKADNIFERLVKLDAAFEEEHKHLFNEFGINLRKSKMYDQAVEYYGRALELSQGDENLHLNVARAYLEKQDFPHCLEHVLRALMINPAHEAGLKFLAWMEAKKLVPEDQRAAVAEAVARARSTGGTPASAANEG,not soluble
4,MSLDVTLTQPSIPDQSEDRRVRTSGSLAGHLPYGMADTLGKHEHLSTVDLVVPRFNASETEMLLGLFDGQALSSGGSKIAKYLHENFGHIFALELKALKTRLNETPVDALRRAFLALNKDLVTIAIQQSEERPIQTHRNSGQPIILTKEDLNSGGVATVVYLQSTELYVANVGDAQAMVIQTDGTHKMLTRKHDPAEPTERSRIREAGGWVSRNGRLNDLLQVSRAFGYVDLMPAVQAAPYVSNMTIREQDDIILIATGELWEYLSPGLVTDVARAERQDLMRAAQKLRDLAIAYGASGKIMVMMISVADEGHHHHHH,soluble
5,MPEVKTEKPHLLDMGKPQLRMVDLNLLTVFDAVMQEQNITRAAHTLGMSQPAVSNAVARLKVMFNDELFVRYGRGIQPTARAFQLFGSVRQALQLVQNELPGSGFEPTSSERVFNLCVCSPLDNILTSQIYNRVEKIAPNIHVVFKASLNQNTEHQLRYQETEFVISYEEFRRPEFTSVPLFKDEMVLVASRKHPRISGPLLEGDVYNEQHAVVSLDRYASFSQPWYDTPDKQSSVAYQGMALISVLNVVSQTHLVAIAPRWLAEEFAESLDLQILPLPLKLNSRTCYLSWHEAAGRDKGHQWMEDLLVSVCKR,not soluble
6,MGSDKIHHHHHHMNLLPLFLAVAEEDNFRAAADRLGVTRSAVSQGIRRLEDAFGTTLVTRTTRSVRLTEAGERLREALSQPLSDIGTALDRVAGEDEPRGLLRIAVTSIAEQFLSGPLIASFAQAHPKVAIDVTVTDEEFDIVAAGFDAGVRLGEVIEQDMIAVPLTGDQRELAVAAPTYLAVRGTPAHPRELVHHRCIGWRRAPNVAPYRWEFEENGVPFDVAVEPQITTNDLRFMLRSALCGAGITFATEETFRPFVETGELVPLLQDFLPPFPGFFLYFPQRRNMTPKMRALIEHVRRWR,not soluble
7,MAHHHHHHMAATNSPTEEEVVMRYQQLRQECLAMDSRISELENELHEHQLVADTLKPLNGDRRCHRLVGGALIERTVADILPELVENIKGIEEALAQLNKMLTEKQAAMDEYARKHGVTVAQRQGQTPAGGGGANNDEGEKKPMGADSRGVLV,soluble
8,MSLSALIINEYREQGGTAISFPEDISRARQKLFRFLDNRFDSDQYRENVRELTPAIMAVLPVEFRTRLAPQNDTMSLIASAMKECSEAKQAVLLNAPEHQKMKEVSEGIASLFRLMPEQVGPLMTMVTSMLGVIEGHHHHHH,not soluble
9,GSGMKETAAAKFGERQHMDSPDLGTDDDDKAMACSAGPSGFFTRLGRLIKEKAKSDVEKVFSGFSKTRENLAVIDELLLFWNLAETDRVLDELEEALLVSDFGPKITVRIVERLREDIMSGKLKSGSEIKDALKESVLEMLAKKNSKTELQLGFRKPAVIMIVGVNGGGKTTSLGKLAHRLKNEGTKVLMAAGDTFRAAASDQLEIWAERTGCEIVVAEGDKAKAATVLSKAVKRGKEEGYDVVLCDTSGRLHTNYSLMEELIACKKAVGKIVSGAPNEILLVLDGNTGLNMLPQAREFNEVVGITGLILTKLDGSARGGCVVSVVEELGIPVKFIGVGEAVEDLQPFDPEAFVNAIFS,soluble
10,MCIMCELKNFRRNITCFEGYDENSFIGKWYDDGVWDDEEYWKLENDLIEVRKKYPYPMDIPRYVVIGIGTIIDFLMVPNWKLFEIKASPWLPDSVGINERYERLKTMLRYIFTEKDIVNVQFDYYNKK,not soluble
11,SLENENQLTHQFPTLSRWNPMFISDVHKISFHPHLQRYIGFWMGFPIRWIQIVGYIAAIDIYEGKHVLTVDDCSGMVLRVVFIIQDDFSMSKRAISMSPGNVVCVFGKINSFRSEVELIAQSFEELRDPNDEWKAWQKRMRYKKNLTKISKNHHSIIRT,soluble
12,MLLAGLTSCQQKGYTITGTVDSTLNLDGNMVYIQLSQGNNLDSTTIRNGAFTFTGEHIDTAKLAYIVTASPEHNVVPIIFILEDGKISAKIGEYAAKGTPLNEENFKYSAKINELENSFKLKMEEIQADTARAAEETQAMLEKEYTAMLGEKSKITTELYQSHTNDALGARLLQNILYGEGSDSDVIAEARKKAGPIVLAHPNIVHLLAMIDNLADTQPGKMAKNFAGTDAEGNEVELFKYVGQGNYAVVDFWASWCGPCRREIPYIAEANAKFAEKGLQVVGIVVWDKMEDHLKAKEALNVVWPQIFDAKNVATDMYGIQGIPQVILFGPDGTIIERDLRGEKLIEKLSEIYNSNKK,not soluble
13,MADRRRTDDNKGAREVVLLLNIGSPDSPEEKDVARYLNSFLTDRRIITLPFLLRQLLVRGIITPFRKKSSAQKYRTVWDESTRSFPLISHTKAIARALAHTGREVHVAMRYGKPAVADVLKELPHGRSLVVLPLFPHYAMSSYETAVEHCKAEIRRLCPNLSFRVVQPFYAHEAYIRVLADNIRPYLTKPFDKLILSYHGIPRDHLDKTTRQALNLRHPEGCCTEEDPTANVCYRYQTYRTTALIREALGLAEEQVEQVFQSRVGHTEWLRPYLIERLSAWPQEETKRILIACPSFVCDCLESLEEVADHGQSIFKKAGGADFTYIPCLNSGANWIDALRNILEE,not soluble
14,MILIGDSGSTKTDWCIAKEGKSLGRFQTSGINPFQQDRNEIDTALRSEVLPAIGQKASSIRAVYFYGAGCTPAKAPMLNEALDSMLPHCDRIEVAGDMLGAARALCGDSEGIACILGTGSNSCLFDGREIKANVSPLGYILGDEGSGAVLGRLFIGSLLKGQMPEGLCEAFLQEYGLTSADIIESVYRKPFPNRFLAGFSPFIAQHLDIPAVYSLVQNSFDDFLVRNVLRYNRPDLPLHFIGSVAFHYREVLSSVIKKRGLTLGSVLQSPMEGLIQYHHNNHVLEHHHHHH,soluble
15,GPLGSMPEVRFQQQLEQLNSMGFINREANLQALIATGGDINAAIERLLGSQLS,soluble
16,MSLGAYLSQPNTVKCSGDGVGAPRLPLPYGFSAMQGWRVSMEDAHNCIPELDSETAMFSVYDGHGGEEVALYCAKYLPDIIKDQKAYKEGKLQKALEDAFLAIDAKLTTEEVIKELAQIAGRPGMEGKEEPGSDSGTTAVVALIRGKQLIVANAGDSRCVVSEAGKALDMSYDHKPEDEVELARIKNAGGKVTMDGRVNGGLNLSRAIGDHFYKRNKNLPPEEQMISALPDIKVLTLTDDHEFMVIACDGIWNVMSSQEVVDFIQSKISQRDENGELRLLSSIVEELLDQCLAPDTSGDGTGCDNMTCIIICFKPRNTAELQPESGKRKLEEVLSTEGAEEEGHHHHHH,soluble
